According to patent publication US6861578B1, “Method for plant protection against insects or nematodes by transformation with a nucleic acid encoding equistatin” (Plant Research International B.V., priority 1997, dated 2005):

Columns and labels:
[1] = test system: Colorado potato beetle larval gut extracts (potato protease inhibitor-insensitive cysteine proteases); test: General proteolytic activity of Colorado potato beetle larval gut extracts, azocasein; format: biochemical, Leptinotarsa decemlineata
Description: (§1) Guts of final instar Colorado potato beetle larvae reared on methyl jasmonate induced plants were isolated and extracted essentially as described (Bolter and Jongsma, J. Insect Physiol. 41: 1071-1078). In these gut extracts the proteases that are sensitive to the protease inhibitors of potato are already complexed. The residual protease activity is composed of potato protease-inhibitor-insensitive proteases which were induced in response to the methyl jasmonate induced potato inhibitors. These proteases are the proteases that render the beetle larvae insensitive to protease inhibitor defense of the potato plant. Wle tested a broad range of different cysteisie protease inhibitors for activity specifically against these induced potato protease inhibitor-insensitive cysteine protesses. Nearly all of these inhibitors were purified at the Jozef Stefan Institute in Slovenia. Testing their potential against Colorado potato beetle was done using both general protein substrates (azocasein, table 2) as well as specific synthetic substrates (L-Arg-pNA, table 3; pGlu-Phe-Leu-pNA, table 4; Z-Phe-Arg-pNA, table 5; Z-Arg-Arg-pNA, table 6). In specific cases inhibitors were tested at two concentrations, eauimolar and in excess to the protease, in order to obtain an indication of the tightness of the complex. […] Importantly, this class of inhibitors was capable of inhibiting nearly all general cysteine protease activity. The equistatin peptide molecule and a functional derivative thereof were not very active against the aminopeptidase-like cysteine protease activity. […] The best combination of inhibitors for full toxicity against the Colorado potato beetle would therefore be a combination of equistatin or p41 invariant chain fragment and stefin-like inhibitors.

cathepsin D = cathepsin D (Homo sapiens, UniProt P07339); test: Incubation of equistatin with cathepsin D, reverse-phase HPLC (substrate test); format: biochemical; settings: incubated in different molar concentrations and times
cathepsin D, sequence (P07339 65-412, species assumed): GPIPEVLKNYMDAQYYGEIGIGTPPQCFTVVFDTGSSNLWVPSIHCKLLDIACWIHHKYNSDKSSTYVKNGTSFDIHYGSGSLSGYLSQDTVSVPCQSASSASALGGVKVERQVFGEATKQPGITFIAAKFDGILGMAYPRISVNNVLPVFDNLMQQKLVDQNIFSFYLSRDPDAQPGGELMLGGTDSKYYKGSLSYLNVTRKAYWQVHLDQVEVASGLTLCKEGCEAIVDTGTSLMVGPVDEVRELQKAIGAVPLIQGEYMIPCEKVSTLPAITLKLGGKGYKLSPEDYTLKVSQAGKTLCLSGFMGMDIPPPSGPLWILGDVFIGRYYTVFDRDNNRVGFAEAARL
Method: In panel A the equistatin was incubated with cathepsin D in a final molar concentration of 2:1, and in panel B the equistatin was fragmented using 1% (w/w) β-trypsin. Identities of peaks were based on the N-terminal sequences.
(§2) Equistatin was isolated from sea anemone A. equina by a procedure that was described previously utilizing its inhibitory activity toward cysteine proteinase, papain (Lenarcic et al. (1997) J. Biol. Chem. 272: 13899). Besides cysteine proteinases, equistatin was screened for the inhibition of two other classes of proteinases, aspartic proteinases (cathepsin D) and serine proteinase (trypsin). […] 500 μg equistatin was incubated with 5 μg of β-trypsin in 0.5 ml of 0.1 M Tris/HCl buffer pH 8.0, for 40 min at 37° C. Reaction was stopped by the addition of trifluoroacetic acid. The 9-trypsin digest of equistatin was separated by high performance liquid chromatography (Milton Roy Co.) using a reverse phase Vydac C18 column equilibrated with 5% acetonicril containing 0.1% (v/v) trifluoroacetic acid. Elution was performed using a linear gradient of 80% (v/v) acetonitrile containing 0.1% (v/v) trifluoroacetic acid. Absorbance was monitored at 215 nm. Two major peaks were obtained on the reverse-phase. HPLC (FIG. 9B). The molecular weights, estimated by the SDS PAGE under non-reducing conditions, were about 7,000 and 14,000 (FIG. 10). […]

leafminer proteases = test: Protease activity of adult leafminer fly extract, FITC-hemoglobin; format: biochemical, Liriomyza trifolii; settings: leafminer pH 3.5; equistatin purified from sea anemone
Method: Adult western flower thrips (Frankliniella occidentalis) and leafmirer flies (Liriomyza trifolii) adult were harvested from a culture maintained on chrysanthemum plants and complete thrips and flies were homogenized in extraction on buffer (200 mM β-alanine-HCl, pH 3.5) in a volume of 5 times the weight of the insects. The buffer pH was at the previously determined pH optimum of protease activity towards hemoglobin. Final instar Colorado potato beetle larvae maintained on potato plants as described in example 5 were checked for gut aspartic protease activity by preparing a total gut extract in pH 3 buffer which is optimal for Colorado potato beetle aspartic proteases (200 mM glycine, pH 3). Guts were homogenized in 100 μl buffer per gut. Third instar western corn rootworm larvae maintained on corn roots were used to remove the guts. Ten guts were homogenized in 100 μl water and spinned twice to remove insoluble material. Two types of buffers were used in the enzymatic assay. One with a pH presumably favoring cysteine proteases (50 mM MES, pH 6.5; 0.6 mg/ml L-cysteine) and one for detecting aspartic proteases (200 mM glycine, pH 3). Supernatants were stored at −20° C.
2 μl gut extract was combined with 2 μl inhibitor (2 mM pepstatin in methanol, 4 mM E64 in water, 2 mg/ml recombinant equistatin in water. The concentration of the other proteinaceous inhibitors was not known exactly). Appropriate buffers were added to a final volume of 100 μl. After 15′ preincubation 20 μl substrate (5 mg/ml FITC-hemoglobin) was added and incubated for 30-45 min at 37 C.
Reaction was stopped by the addition of 100 μl 10% TCA. Tubes were centrifuged and 100 μl supernatant mixed with 100 μl 10 N NaOH was measured on a fluorimeter for the extent of hemoglobin hydrolysis. Measurements were done in duplicate on one (thrips, leafminer and western corn rootworm), or three (Colorado potato beetle) different gut extracts and varied by a maximum of +/−5%.

[2] = test system: endoprotease activity of Colorado potato beetle larval gut extracts; test: Broad spectrum endoprotease activity of Colorado potato beetle gut extract, Z-Phe-Arg-pNA; format: biochemical, Leptinotarsa decemlineata
Description: as §1

trypsin = test: Screen of equistatin against serine proteinase trypsin; limited proteolysis; format: biochemical; settings: screened against cathepsin D and trypsin
Method: as §2, with “10). Determination of the N-termini of the both fragments allowed them to be located in the sequence of the equistatin molecule shown schematically in FIG. 11.” for “10).”

B1: equistatin: cysteine/aspartic protease inhibitor from sea anemone Actinia equina with three type I repeated thyroglobulin domains; purified or recombinant from E. coli (protein)
chain: SLTKCQQLQASANSGLIGTYVPQCKETGEFEEKQCWGSTGYCWCVDEDGKEILGTKIRGSPDCSRRKAALTLCQMMQAIIVNVPGWCGPPSCKADGSFDEVQCCASNGECYCVDKKGKELEGTRQQGRPTCERHLSECEEARIKAHSNSLRVEMFVPECLEDGSYNPVQCWPSTGYCWCVDEGGVKVPGSDVRFKRPTC
modifications: left off: large carriers; small tags and cut ends
notes: purified or recombinant from E. coli
Residual activity in excess of inhibitor [1]: 10% | degradation of equistatin by cathepsin D (cathepsin D): No degradation products were observed | residual protease activity (leafminer proteases): 24% | % of residual activity, equimolar ([2]; equimolar): 30% | % of residual activity, excess inhibitor ([2]; excess inhibitor): 20% | inhibitory effect on trypsin (screen) (trypsin): observed only when it was reacting with cathepsin D
